According to US20250290928A1, “METHOD, KIT AND DEVICE FOR DETECTING EXTRACELLULAR VESICLES” (priority 2022, published 2025):
*: point of attachment. 5FAM = O=C1OC2(c3ccc(O)cc3Oc3cc(O)ccc32)c2ccc(C(=O)*)cc21; TQ2 = quencher

Target: T1, MMP14 in the MDA-MB-231-derived extracellular vesicles (Homo sapiens, UniProt P50281)
T1 construct: in terms of intact MMP14 with a molecular weight of 70 kDa
Assay: Digital detection through MMP14 activity of MDA-MB-231-derived extracellular vesicles captured on Tim4-immobilized magnetic particles
Type: biochemical
Experimental: Magnetic particles included in PS Capture (trademark) Exosome Flow Cytometry Kit (manufactured by FUJIFILM Corporation) were used as magnetic particles. In this kit, binding of an extracellular vesicle to a Tim4-immobilized magnetic particle is utilized.
800 μL of Exosome Capture Beads were aliquoted in a 1.5 mL microtube, vortexed for 5 seconds, spun down in a benchtop centrifuge, and then placed on a magnetic stand. After still standing for 1 minute, the supernatant was removed by pipetting. 1 mL of x1 WB (+Enhancer) prepared from x10 Washing Buffer and x100 Exosome Binding Enhancer included in the kit was added to the residue, the mixture was vortexed for 5 seconds, spun down in a benchtop centrifuge, and then placed on a magnetic stand. After still standing for 1 minute, the supernatant was removed by pipetting. This operation was repeated three times.
800 μL of the buffer (4) was added to the magnetic particle pellets, and the mixture was vortexed for 30 seconds to provide a homogeneous magnetic particle suspension. 60 μL of the suspension was aliquoted into each of twelve 1.5 mL microtubes.
The concentration of the solution is 4 μg/mL. […] Further, the concentration of the x1/5 solution was set to be the highest concentration, and 10-fold dilution was performed in four stages. Thus, 10-fold dilution samples in a total of five stages were obtained.
The magnetic particle suspension that had been aliquoted in each amount of 60 μL in the section “(Preparation of Particles)” was vortexed for 5 seconds, spun down in a benchtop centrifuge, and then placed on a magnetic stand. After still standing for 1 minute, the supernatant was removed by pipetting.
After that, the above-mentioned mixed solution was spun down in a benchtop centrifuge, then placed on a magnetic stand, and left to stand still for 1 minute. After that, the supernatant was removed by pipetting, 300 μL of the buffer (4) was added to the residue, and the mixture was vortexed for 5 seconds. The mixture was spun down in a benchtop centrifuge, then placed on a magnetic stand, and left to stand still for 1 minute. The same operation was further repeated twice.
For detection of MMP14 activity, 1 mM Custom #1 and Custom #2 were diluted with the buffer (4) to prepare MMP14 detection solutions containing 5 μM Custom #1 and Custom #2, respectively.
The supernatant of the mixed solution of the magnetic particles and the extracellular vesicles subjected to the washing was removed by pipetting, and 60 μL of each of the MMP14 detection solutions was added to each of the magnetic particle pellets to prepare a reaction solution for wells.
Magnosphere (trademark) MS300/Streptavidin (manufactured by JSR Corporation) (hereinafter abbreviated as “MS300S”) was used as magnetic particles. The magnetic particles were modified with Tim4 through use of Biotin-labeled Exosome Capture included in MagCapture (trademark) Exosome Isolation Kit PS Ver. 2 (manufactured by FUJIFILM Corporation) (hereinafter abbreviated as “PS2”) to prepare Tim4-immobilized magnetic particles.
10 μL of Biotin-labeled Exosome Capture was added to the suspension, and the mixture was vortexed for 5 seconds so that the contents were mixed. The mixture was subjected to a reaction for 10 minutes while the contents were mixed by inversion at room temperature with a rotator. After that, the resultant was spun down in a benchtop centrifuge, and then placed on a magnetic stand. After still standing for 1 minute, the supernatant was removed by pipetting. 500 μL of x1 I/WB (±Enhancer) was added to the residue, and the mixture was vortexed for 5 seconds, spun down in a benchtop centrifuge, and then placed on a magnetic stand. After still standing for 1 minute, the supernatant was removed by pipetting. This operation was further repeated twice. […]

[1] = Example 49, PS Capture Tim4 particles, 30° C., 4 h
[2] = Table 52, particles modified with Tim4, MB231 concentration x1/5, 4 hr
[3] = Table 52, particles modified with Tim4, MB231 concentration x1/50, 4 hr
[4] = Table 52, particles modified with Tim4, MB231 concentration x1/500, 4 hr
[5] = Table 52, particles modified with Tim4, MB231 concentration x1/5,000, 4 hr
[6] = Table 52, particles modified with Tim4, MB231 concentration x1/50,000, 4 hr
[7] = Table 53, BG subtracted, MB231 concentration x1/50, 4 hr
[8] = Table 53, BG subtracted, MB231 concentration x1/500, 4 hr
[9] = Table 53, BG subtracted, MB231 concentration x1/5,000, 4 hr
[10] = Table 53, BG subtracted, MB231 concentration x1/50,000, 4 hr
[11] = Table 53, BG subtracted, MB231 concentration x1, 4 hr
[12] = Example 50, MS300S Tim4 particles, 30° C., 4 h
[13] = Table 53, BG subtracted, MB231 concentration x1/5, 4 hr
[14] = Table 54, particles immobilized with Tim4, MB231 concentration x1/5, 4 hr
[15] = Table 54, particles immobilized with Tim4, MB231 concentration x1/25, 4 hr
[16] = Table 54, particles immobilized with Tim4, MB231 concentration x1/125, 4 hr
[17] = Table 54, particles immobilized with Tim4, MB231 concentration x1/625, 4 hr
[18] = Table 54, particles immobilized with Tim4, MB231 concentration x1/3,125, 4 hr
[19] = Table 54, particles immobilized with Tim4, MB231 concentration x1/15,625, 4 hr
[20] = Table 54, particles immobilized with Tim4, MB231 concentration x1, 4 hr
[21] = Table 55, BG subtracted, MB231 concentration x1/5, 4 hr
[22] = Table 55, BG subtracted, MB231 concentration x1/25, 4 hr
[23] = Table 55, BG subtracted, MB231 concentration x1/125, 4 hr
[24] = Table 55, BG subtracted, MB231 concentration x1/625, 4 hr
[25] = Table 55, BG subtracted, MB231 concentration x1/3,125, 4 hr
[26] = Table 55, BG subtracted, MB231 concentration x1/15,625, 4 hr
[27] = Table 55, BG subtracted, MB231 concentration x1, 4 hr
[28] = Table 56, Particle MS300C, MB231 Present, 24 hours at 23° C.
[29] = Table 56, Particle Simoa, MB231 Present, 24 hours at 23° C.

[5-FAM]GRIGFLRTAK(TQ2)[OH] (5FAM-GRIGFLRTAK(TQ2)-OH) [Custom #1]
number of the extracellular vesicles (Example 49, 6×10^5 particles, 3 μg of protein at x1): 1.04×10^6
expected value Δλ per particle (value obtained by subtracting BG) at a concentration of x1 [1]: 1.7373
number of the extracellular vesicles [1]: 3.47×10^5 /μg of protein
Particle Expected value λ [2]: 0.831
Particle Number of positives [2]: 1,240
Particle Positive ratio [2]: 0.5644
Particle Expected value λ [3]: 0.06966
Particle Number of positives [3]: 165
Particle Positive ratio [3]: 0.06729
Particle Expected value λ [4]: 0.03312
Particle Number of positives [4]: 89
Particle Positive ratio [4]: 0.03258
Particle Expected value λ [5]: 0.01344
Particle Number of positives [5]: 41
Particle Positive ratio [5]: 0.01335
Particle Expected value λ [6]: 0.01169
Particle Number of positives [6]: 30
Particle Positive ratio [6]: 0.01162
Particle Expected value Δλ [7]: 0.05749
Particle Δ Number of positives [7]: 137
Particle Δ Positive ratio [7]: 0.05587
Particle Expected value Δλ [8]: 0.02258
Particle Δ Number of positives [8]: 61
Particle Δ Positive ratio [8]: 0.02233
Particle Expected value Δλ [9]: 0.00424
Particle Δ Number of positives [9]: 13
Particle Δ Positive ratio [9]: 0.00423
Particle Expected value Δλ [10]: 0.00078
Particle Δ Number of positives [10]: 2
Particle Δ Positive ratio [10]: 0.00077
Particle Expected value Δλ [11]: 0.8022
Particle Δ Number of positives [11]: 1,212
Particle Δ Positive ratio [11]: 0.5517

[5-FAM]GGPLGLAGGK(TQ2)[OH] (5FAM-GGPLGLAGGK(TQ2)-OH) [Custom #2]
number of the extracellular vesicles [1]: 1.18×10^5 /μg of protein
number of the extracellular vesicles (Example 50, 6×10^5 particles, 2 μg of protein): 1.77×10^5
expected value Δλ per particle (value obtained by subtracting BG) at a concentration of x1 [12]: 0.2953
number of the extracellular vesicles [12]: 8.86×10^4 /μg of protein
Particle Expected value λ [2]: 0.2744
Particle Number of positives [2]: 557
Particle Positive ratio [2]: 0.24
Particle Expected value λ [3]: 0.09639
Particle Number of positives [3]: 246
Particle Positive ratio [3]: 0.09189
Particle Expected value λ [4]: 0.03784
Particle Number of positives [4]: 181
Particle Positive ratio [4]: 0.03714
Particle Expected value λ [5]: 0.01211
Particle Number of positives [5]: 37
Particle Positive ratio [5]: 0.01204
Particle Expected value λ [6]: 0.00551
Particle Number of positives [6]: 17
Particle Positive ratio [6]: 0.00549
Particle Expected value Δλ [13]: 0.2716
Particle Δ Number of positives [13]: 552
Particle Δ Positive ratio [13]: 0.2378
Particle Expected value Δλ [7]: 0.09434
Particle Δ Number of positives [7]: 241
Particle Δ Positive ratio [7]: 0.09003
Particle Expected value Δλ [8]: 0.03678
Particle Δ Number of positives [8]: 176
Particle Δ Positive ratio [8]: 0.03611
Particle Expected value Δλ [9]: 0.01047
Particle Δ Number of positives [9]: 32
Particle Δ Positive ratio [9]: 0.01041
Particle Expected value Δλ [10]: 0.00388
Particle Δ Number of positives [10]: 12
Particle Δ Positive ratio [10]: 0.00388
Particle Expected value λ [14]: 0.1892
Particle Number of positives [14]: 1,235
Particle Positive ratio [14]: 0.1723
Particle Expected value λ [15]: 0.1044
Particle Number of positives [15]: 643
Particle Positive ratio [15]: 0.09911
Particle Expected value λ [16]: 0.06097
Particle Number of positives [16]: 385
Particle Positive ratio [16]: 0.05915
Particle Expected value λ [17]: 0.03309
Particle Number of positives [17]: 225
Particle Positive ratio [17]: 0.03255
Particle Expected value λ [18]: 0.02229
Particle Number of positives [18]: 166
Particle Positive ratio [18]: 0.02204
Particle Expected value λ [19]: 0.01639
Particle Number of positives [19]: 88
Particle Positive ratio [19]: 0.01625
Particle Expected value λ [20]: 0.2912
Particle Number of positives [20]: 1,744
Particle Positive ratio [20]: 0.2526
Particle Expected value Δλ [21]: 0.1853
Particle Δ Number of positives [21]: 1,212
Particle Δ Positive ratio [21]: 0.1691
Particle Expected value Δλ [22]: 0.1004
Particle Δ Number of positives [22]: 620
Particle Δ Positive ratio [22]: 0.09556
Particle Expected value Δλ [23]: 0.05722
Particle Δ Number of positives [23]: 362
Particle Δ Positive ratio [23]: 0.05562
Particle Expected value Δλ [24]: 0.02966
Particle Δ Number of positives [24]: 202
Particle Δ Positive ratio [24]: 0.02922
Particle Expected value Δλ [25]: 0.01917
Particle Δ Number of positives [25]: 143
Particle Δ Positive ratio [25]: 0.01899
Particle Expected value Δλ [26]: 0.01208
Particle Δ Number of positives [26]: 65
Particle Δ Positive ratio [26]: 0.01201
Particle Expected value Δλ [27]: 0.2868
Particle Δ Number of positives [27]: 1,721
Particle Δ Positive ratio [27]: 0.2493
Particle Expected value λ [28]: 0.2899
Particle Positive ratio [28]: 0.2517
Particle Expected value λ [29]: 0.3046
Particle Positive ratio [29]: 0.2626
